Reference: paper PMC4538832, “Structures of the T. brucei kRNA editing factor MRB1590 reveal unique RNA-binding pore motif contained within an ABC-ATPase fold” (Nucleic Acids Research, 2015)

Tested on: T1, MRB1590(10-668) (Trypanosoma brucei), UPI00067E648B
T1 sequence: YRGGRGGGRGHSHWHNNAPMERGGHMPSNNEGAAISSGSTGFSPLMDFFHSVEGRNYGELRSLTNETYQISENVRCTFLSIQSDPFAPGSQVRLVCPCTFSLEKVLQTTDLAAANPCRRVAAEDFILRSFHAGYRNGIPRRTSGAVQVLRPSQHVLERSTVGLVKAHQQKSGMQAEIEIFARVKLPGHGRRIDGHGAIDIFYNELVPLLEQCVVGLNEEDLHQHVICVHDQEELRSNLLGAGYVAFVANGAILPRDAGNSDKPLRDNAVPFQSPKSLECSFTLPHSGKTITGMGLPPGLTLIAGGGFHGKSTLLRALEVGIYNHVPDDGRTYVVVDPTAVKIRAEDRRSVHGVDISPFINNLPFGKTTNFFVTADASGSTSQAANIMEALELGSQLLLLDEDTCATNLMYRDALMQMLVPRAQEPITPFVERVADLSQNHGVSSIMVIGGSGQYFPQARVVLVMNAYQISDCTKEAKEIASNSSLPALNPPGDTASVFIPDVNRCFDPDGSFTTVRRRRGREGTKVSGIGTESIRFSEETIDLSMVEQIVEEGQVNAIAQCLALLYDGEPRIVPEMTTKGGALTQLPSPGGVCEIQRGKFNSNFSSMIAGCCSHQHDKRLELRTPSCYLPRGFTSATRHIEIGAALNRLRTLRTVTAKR
Assay: fluorescence polarization
Conditions: FP: 20 mM Tris-HCl pH 7.5, 150 mM NaCl, 5% glycerol, 1 mM MgCl2, 2 mM ADP or AMP-PNP, 1 nM 3'-fluoresceinated RNA (heated to 99 C, slow cooled), 25 C

40 mer GC-rich A6
Kd: 1.3 nM

GC-rich RNA 14 mer
Kd: 236 nM

GC-rich RNA 16 mer
Kd: 8.2 nM

GC-rich RNA 15 mer
Kd: 27.9 nM

GC-rich RNA 18 mer
Kd: 5.7 nM
